Consider 29 molecules from US20090022728A1 (RINAT NEUROSCIENCE, published 2009).

Positions count from the first letter of the chain named.

Assay [1] deals with T1, biotinylated Aβ1-40 peptide (biotinylated (N-biotinylated in Example 7)).
T1 construct: captured on streptavidin (SA) chip; also called Biotinylated Aβ peptide 1-40; Aβ1-40 on SA chip
Nature of the assay: SPR, Fab over Aβ1-40 on SA chip. Here is the method: (§1) Affinities of 9TL Fab fragment and its variants Fab fragments were determined by Surface Plasmon Resonance (SPR) system (BIAcore 3000™, BIAcore, Inc., Piscaway, N.J.). SA chips (streptavidin) were used according to the supplier's instructions. Biotinylated Aβ peptide 1-40 was diluted into HBS-EP (10 mM HEPES pH 7.4, 150 mM NaCl, 3 mM EDTA, 0.005% P20) and injected over the chip at a concentration of 0.005 mg/mL. Using variable flow time across the individual chip channels, two ranges of antigen density were achieved: 10-200 response units (RU) for detailed kinetic studies and 500-600 RU for concentration studies and screening. […] HBS-EP buffer was used as running buffer for all the BIAcore assays. […] The concentrations of the Fab proteins were determined by ELISA and/or SDS-PAGE electrophoresis using a standard Fab of known concentration (determined by amino acid analysis). Kinetic association rates (kₒₙ) and dissociation rates (koff) were obtained simultaneously by fitting the data to a 1:1 Langmuir binding model (Karlsson, R. Roos, H. Fagerstam, L. Petersson, B. (1994). Methods Enzymology 6. 99-110) using the BIAevaluation program. Equilibrium dissociation constant (KD) values were calculated as koff/kₒₙ.
(§2) All amino acid substitutions of the variants shown in Table 3 are described relative to the sequence of 9TL. KD and other kinetic parameters were determined by BIAcore analysis described above with Aβ₁₋₄₀ immobilized on SA chip.
(SPR reads the build-up and loss of mass on a sensor chip optically.)

The target in assay [2] is T1, biotinylated Aβ1-40 peptide. Nature of the assay: SPR, Fab over Aβ1-40 on SA chip; KD=koff/kon. Here is the method:
as §1, §2

The target is the same in assay [3]. Nature of the assay: SPR, Fab over Aβ1-40 on SA chip; kon may be assumed = 9TL (footnote 2). Here is the method:
as §1, §2

T1 sequence (peptide, as listed by the source): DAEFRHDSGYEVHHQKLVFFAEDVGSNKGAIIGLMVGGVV

B1: 9TL variant 22-T/I Fab (Fab, V domains shown)
VH: QVQLVQSGAEVKKPGASVKVSCKASGYYTEAYYIHWVRQAPGQGLEWMGRIDPATGNTKYAPRLQDRVTMTRDTSTSTVYMELSSLRSEDTAVYYCASLYSLPVYWGQGTTVTVSS
VL: DVVMTQSPLSLPVTLGQPASISCKSSQSLLYSDAKTYLNWFQQRPGQSPRRLIYQISRLDPGVPDRFSGSGSGTDFTLKISRVEAEDVGVYYCLQGTHYPVIFGQGTRLEIKR
notes: Fab; human IgG2 CH1 and kappa CL
B1: the koff in assay [1] was 0.00046 s⁻¹. The molecule further displayed a Kd in assay [2] of 1.45 nM. Also, the association rate constant (kon) in assay [3] turned out to be 318000 M⁻¹ s⁻¹.

B2: 9TL variant M9 Fab (Fab, V domains shown)
VH: B1 VH
VL: B1 VL with L94G, I102L
notes: as for B1
B2 registered a koff in assay [1] of 0.0078 s⁻¹. Besides, the affinity in assay [2], expressed as Kd, was 24.5 nM. Further, in assay [3], the kon turned out to be 318000 M⁻¹ s⁻¹.

B3: 9TL variant M23 Fab (Fab, V domains shown)
VH: B1 VH
VL: B1 VL with V101K, I102L
notes: as for B1
Take B3: the koff in assay [1] was determined as 0.005 s⁻¹. Binding in assay [2] was put at a Kd of 15.7 nM. Further, the association rate constant (kon) in assay [3] turned out to be 318000 M⁻¹ s⁻¹.

B4: 9TL variant M8 Fab (Fab, V domains shown)
VH: B1 VH
VL: B1 VL with L94Q, I102L
notes: as for B1
With B4, the koff in assay [1] was found to be 0.0068 s⁻¹. In assay [2], this molecule gave an equilibrium dissociation constant (Kd) of 21.4 nM. The association rate constant (kon) in assay [3] stood at 318000 M⁻¹ s⁻¹.

B5: 9TL variant M27 Fab (Fab, V domains shown)
VH: B1 VH
VL: B1 VL with V101E, I102L
notes: as for B1
In assay [1], B5 registered an off-rate (koff) of 0.012 s⁻¹. Also, in assay [2], the dissociation constant Kd came to 37.7 nM. Moreover, in assay [3], the on-rate constant (kon) stood at 318000 M⁻¹ s⁻¹.

B6: 9TL variant M12 Fab (Fab, V domains shown)
VH: B1 VH
VL: B1 VL with G96T, I102L
notes: as for B1
Regarding B6, in assay [1], the off-rate constant (koff) came to 0.0033 s⁻¹. Further, binding in assay [2] was characterised by a dissociation constant (Kd) of 10.4 nM. This molecule also yielded an on-rate (kon) in assay [3] of 318000 M⁻¹ s⁻¹.

B7: 9TL variant M26 Fab (Fab, V domains shown)
VH: B1 VH
VL: B1 VL with V101A, I102L
notes: as for B1
Molecule B7 displayed an off-rate (koff) in assay [1] of 0.009 s⁻¹. In assay [2], the dissociation constant Kd was 28.3 nM. The same molecule came in with a kon in assay [3] of 318000 M⁻¹ s⁻¹.

B8: 9TL variant M16 Fab (Fab, V domains shown)
VH: B1 VH
VL: B1 VL with Y99A, I102L
notes: as for B1
As to B8, the koff in assay [1] came out at 0.0007 s⁻¹. In addition, in assay [2], the Kd was 2.2 nM. In assay [3], this molecule had an association rate constant (kon) of 318000 M⁻¹ s⁻¹.

B9: 9TL variant M1 Fab (Fab, V domains shown)
VH: B1 VH
VL: B1 VL with L94M, I102L
notes: as for B1
For the molecule B9, the koff in assay [1] was determined as 0.00086 s⁻¹. This molecule also returned a Kd in assay [2] of 2.7 nM. This molecule returned a kon in assay [3] of 318000 M⁻¹ s⁻¹.

B10: 9TL variant M2 Fab (Fab, V domains shown)
VH: B1 VH
VL: B1 VL with L94N, I102L
notes: as for B1
Take B10: the koff in assay [1] is 0.0011 s⁻¹. Further, the dissociation constant (Kd) in assay [2] is 3.46 nM. Further, the kon in assay [3] was found to be 318000 M⁻¹ s⁻¹.

B11: 9TL variant M24 Fab (Fab, V domains shown)
VH: B1 VH
VL: B1 VL with V101H, I102L
notes: as for B1
B11: the koff in assay [1] stood at 0.006 s⁻¹. Moreover, in assay [2], the Kd stood at 18.9 nM. In assay [3], this molecule gave an association rate constant (kon) of 318000 M⁻¹ s⁻¹.

B12: 9TL variant M3 Fab (Fab, V domains shown)
VH: B1 VH
VL: B1 VL with L94C, I102L
notes: as for B1
Regarding B12, the off-rate constant (koff) in assay [1] stood at 0.0013 s⁻¹. For the same molecule, binding in assay [2] was put at a Kd of 4.09 nM. This molecule also showed a kon in assay [3] of 318000 M⁻¹ s⁻¹.

B13: 9TL variant M11 Fab (Fab, V domains shown)
VH: B1 VH
VL: B1 VL with G96S, I102L
notes: as for B1
The molecule B13 came in with a koff in assay [1] of 0.002 s⁻¹. The molecule further returned a dissociation constant Kd in assay [2] of 6.29 nM. The molecule further had an on-rate constant (kon) in assay [3] of 318000 M⁻¹ s⁻¹.

B14: 9TL variant M17 Fab (Fab, V domains shown)
VH: B1 VH
VL: B1 VL with Y99W, I102L
notes: as for B1
Regarding B14, the dissociation rate constant (koff) in assay [1] was 0.001 s⁻¹. The molecule further came in with a Kd in assay [2] of 3.14 nM. For the same molecule, the kon in assay [3] is 318000 M⁻¹ s⁻¹.

B15: 9TL variant M13 Fab (Fab, V domains shown)
VH: B1 VH
VL: B1 VL with T97S, I102L
notes: as for B1
In turn, B15 displayed an off-rate (koff) in assay [1] of 0.00039 s⁻¹. The molecule also yielded a Kd in assay [2] of 1.23 nM. For the same molecule, in assay [3], the kon came out at 318000 M⁻¹ s⁻¹.

B16: 9TL variant M28 Fab (Fab, V domains shown)
VH: B1 VH
VL: B1 VL with V101M, I102L
notes: as for B1
B16 yielded a dissociation rate constant (koff) in assay [1] of 0.014 s⁻¹. In assay [2], this molecule yielded a Kd of 44 nM. In assay [3], this molecule displayed a kon of 318000 M⁻¹ s⁻¹.

B17: 9TL variant M10 Fab (Fab, V domains shown)
VH: B1 VH
VL: B1 VL with L94S, I102L
notes: Fab; human IgG2 CH1 and kappa CL; same printed substitution as M7
Turning to B17, in assay [1], the koff turned out to be 0.0083 s⁻¹. The dissociation constant (Kd) in assay [2] stood at 26.1 nM. The same molecule had a kon in assay [3] of 318000 M⁻¹ s⁻¹.

B18: 9TL variant M19 Fab (Fab, V domains shown)
VH: B1 VH
VL: B1 VL with Y99M, I102L
notes: as for B1
As for B18, the dissociation rate constant (koff) in assay [1] was determined as 0.0017 s⁻¹. Moreover, the dissociation constant (Kd) in assay [2] was 5.35 nM. For the same molecule, the association rate constant (kon) in assay [3] stood at 318000 M⁻¹ s⁻¹.

B19: 9TL variant M6 Fab (Fab, V domains shown)
VH: B1 VH
VL: B1 VL with L94K, I102L
notes: as for B1
B19 had an off-rate (koff) in assay [1] of 0.0041 s⁻¹. Also, binding in assay [2] was put at a Kd of 12.9 nM. The molecule further had a kon in assay [3] of 318000 M⁻¹ s⁻¹.

B20: 9TL variant M15 Fab (Fab, V domains shown)
VH: B1 VH
VL: B1 VL with Y99P, I102L
notes: as for B1
Take B20: in assay [1], the dissociation rate constant (koff) was 0.00067 s⁻¹. Also, the Kd in assay [2] worked out at 2.11 nM. The on-rate constant (kon) in assay [3] was 318000 M⁻¹ s⁻¹.

B21: 9TL variant M7 Fab (Fab, V domains shown)
VH: B1 VH
VL: B1 VL with L94S, I102L
notes: as for B1
In assay [1], B21 registered a koff of 0.006 s⁻¹. The molecule also showed a Kd in assay [2] of 18.9 nM. This molecule had an on-rate constant (kon) in assay [3] of 318000 M⁻¹ s⁻¹.

B22: 9TL variant M22 Fab (Fab, V domains shown)
VH: B1 VH
VL: B1 VL with V101L, I102L
notes: as for B1
Take B22: in assay [1], the off-rate constant (koff) worked out at 0.004 s⁻¹. Besides, binding in assay [2] was characterised by a dissociation constant (Kd) of 12.6 nM. Moreover, the association rate constant (kon) in assay [3] came to 318000 M⁻¹ s⁻¹.

B23: 9TL variant M18 Fab (Fab, V domains shown)
VH: B1 VH
VL: B1 VL with Y99Q, I102L
notes: as for B1
In the case of B23, in assay [1], the off-rate (koff) was 0.0015 s⁻¹. This molecule also showed a Kd in assay [2] of 4.72 nM. Further, in assay [3], the association rate constant (kon) was determined as 318000 M⁻¹ s⁻¹.

B24: 9TL variant C6 new Fab (Fab, V domains shown)
VH: B1 VH
VL: B1 VL with I102T
notes: as for B1
As to B24, in assay [1], the koff is 0.00092 s⁻¹ and the kon is 356000 M⁻¹ s⁻¹. This molecule displayed a Kd in assay [2] of 2.58 nM.

B25: 9TL variant M25 Fab (Fab, V domains shown)
VH: B1 VH
VL: B1 VL with V101T, I102L
notes: as for B1
Regarding B25, the dissociation rate constant (koff) in assay [1] stood at 0.008 s⁻¹. The same molecule registered a Kd in assay [2] of 25.2 nM. This molecule registered a kon in assay [3] of 318000 M⁻¹ s⁻¹.

B26: 9TL variant M4 Fab (Fab, V domains shown)
VH: B1 VH
VL: B1 VL with L94F, I102L
notes: as for B1
For B26, the dissociation rate constant (koff) in assay [1] was 0.000995 s⁻¹. Also, in assay [2], binding was characterised by a dissociation constant (Kd) of 3.13 nM. Also, the kon in assay [3] was 318000 M⁻¹ s⁻¹.

B27: 9TL variant M20 Fab (Fab, V domains shown)
VH: B1 VH
VL: B1 VL with Y99S, I102L
notes: as for B1
B27 had a koff in assay [1] of 0.002 s⁻¹. In assay [2], this molecule displayed a Kd of 6.29 nM. In assay [3], this molecule had an on-rate (kon) of 318000 M⁻¹ s⁻¹.

B28: 9TL variant M21 Fab (Fab, V domains shown)
VH: B1 VH
VL: B1 VL with Y99E, I102L
notes: as for B1
Regarding B28, the off-rate (koff) in assay [1] was 0.005 s⁻¹. The affinity in assay [2], expressed as Kd, was 15.7 nM. The on-rate constant (kon) in assay [3] was determined as 318000 M⁻¹ s⁻¹.

B29: 9TL variant M14 Fab (Fab, V domains shown)
VH: B1 VH
VL: B1 VL with H98L, I102L
notes: as for B1
In the case of B29, the koff in assay [1] stood at 0.0016 s⁻¹. This molecule had an equilibrium dissociation constant (Kd) in assay [2] of 5.03 nM. Further, the kon in assay [3] amounted to 318000 M⁻¹ s⁻¹.

For orientation: koff means the first-order rate constant of dissociation. Higher therefore signals a short-lived complex. A word on the Kd: it is a measure of binding affinity in units of concentration. The kon is a measure of how fast the partners come together. Higher therefore signals faster complex formation.
